Experimental data: patent publication US20220403048A1, “BINDING MOLECULES TO ARGINASE II [ARG2]” (Cancer Research Technology Limited, priority 2019, published 2022)
Residue numbers refer to the chain shown, from its start. Each block holds one molecule with its values, some of them ahead of it.

Experiments:
ARG2 [1] = target: T1, ARG2 (Homo sapiens, UniProt P78540); assay: Dynamic light scattering of ARG2-Fab complex sizes; parameters: human ARG2 (aa23-354); His10 (C); made in house; host or cells: E. coli BL21 (DE3); conditions: FIG. 23B
T1 sequence (P78540 23-354): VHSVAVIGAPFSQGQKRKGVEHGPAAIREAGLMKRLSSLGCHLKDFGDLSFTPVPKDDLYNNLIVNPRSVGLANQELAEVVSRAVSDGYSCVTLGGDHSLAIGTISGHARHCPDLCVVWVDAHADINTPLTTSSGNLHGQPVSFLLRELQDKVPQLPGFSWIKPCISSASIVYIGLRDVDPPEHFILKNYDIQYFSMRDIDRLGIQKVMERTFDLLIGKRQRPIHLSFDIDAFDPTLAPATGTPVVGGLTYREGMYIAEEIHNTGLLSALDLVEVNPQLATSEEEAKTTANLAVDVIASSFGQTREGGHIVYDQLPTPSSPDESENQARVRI
Experimental: ARG2 and Fabs were analysed at concentrations of 8 μM (referring to monomers) in buffer containing 25 mM tris at pH 7.4 and 150 mM NaCl (FIG. 23). ARG2-Fab complexes were formed by mixing both ARG2 and Fabs at concentrations of 8 μM (referring to monomers) and incubation on ice for 1 h. Dynamic light scattering (DLS) was performed on a Zetasizer Ultra (Malvern Panalytical) using multiangle DLS. Data was collected in a 3×3 mm cuvette (Hellma Analytics) using a sample volume of 30 μl. Volume weighted size-distributions were corrected for refractive index, viscosity, and background scatter of the buffer by the instrument software.

ARG2 [2] = target: T1, ARG2; assay: T cell proliferation assay (BrdU, 72 hours) with exogenous ARG2; assay type: cell-based; conditions: In Absence of rhARG2
Experimental: This assay served to provide in vitro evidence of functional efficacy for each antibody.
Briefly, Leukocyte cones (NHS Blood and Transplant, Watford, UK) underwent Ficoll Plaque (GE, Sweden; Cat: 17-1440-02) gradient separation, PBMC's were extracted and pan T cell population isolated by negative selection using the Human T Cell Enrichment Kit (Stemcell Technologies, France; Cat: 19051) according to the manufacturer's instructions.
40000 cells/well were seeded in complete growth media (RMPI 1640, 5% Human Serum Albumin) into a 96 well clear TC treated microplate (Greiner-Bio One, Germany; Cat: 655180). T Cells were activated by the addition of ImmunoCult CD3/CD28 (Stemcell Technologies, France; Cat: 10971) at a dilution of 1:40 directly into wells and the plate incubated 37° C., 5% CO2 for 45 minutes.
To determine EC50's of test antibodies, a dilution series was created in sterile TBS at 8× the final assay concentration was added to the assay plate containing cells. Plate was incubated for 30 minutes at 37° C., 5% CO2.
ARG2 was added to relevant wells of the plate at a final concentration of 15 μg/ml. The equivalent volume of ARG2 vehicle and test antibody vehicle was added to relevant control wells. […]
Calculated data was expressed as % of control (Equation 3) and graphical plots were constructed using a four parameter fit and EC50's determined using model 205 in XLFit (IDBS, UK). […]

monomeric ARG2 = target: T2, monomeric ARG2 (Homo sapiens, UniProt P78540, E275Q); assay: Human monomeric ARG2 enzyme inhibition assay; assay type: biochemical; conditions: purified recombinant human IgG1, FIG. 5
T2 construct: human ARG2 (aa23-354); His10 (C); made in house; host or cells: E. coli
T2 sequence (P78540 23-354 E275Q): T1 sequence (P78540 23-354) with E253Q
Experimental: ARG2 specific recombinant IgG1 were screened for their ability to inhibit enzymatic activity of monomeric ARG2. In this assay, the ability of ARG2 specific recombinant IgG1 to inhibit the enzymatic activity of monomeric ARG2 was determined by measuring the production of urea, the product of L-arginine turnover by monomeric ARG2.
IC50 values were determined by testing a dilution series of the ARG2 specific recombinant IgG1, prepared in TBS.
10 μl of ARG2 specific recombinant IgG1 (dilution series) were added to a Greiner Bio-One® 384 well assay plate (Greiner Bio-one, UK; cat: 781901). […]
Urea was detected by the simultaneous addition of equal volumes of O-Phthaldialdehyde (1.5 mM O-Phthaldialdehyde, 7% H2SO4, 0.03% Brij L23) and N-(1-Napthyl)ethylenediamine (1.66 mM N-(1-Napthyl)ethylenediamine, 81 mM Boric acid, 21% H2SO4, 0.03% Brij L23) followed by an 18 minute incubation at room temperature before the colorimetric product was quantified on the Pherastar by measuring absorbance at 505 nm.
ARG2 specific recombinant IgG1 were tested alongside N-Hydroxyl-L-Arginine (a small molecule competitive inhibitor of ARG2) as a positive control and NIP228 (irrelevant isotype control antibody) as a negative control. Data points were plotted and IC50 values determined using a four parameter fit in GraphPad Prism (FIG. 5).

B1: C0021139: anti-ARG2 antibody, VH SEQ ID NO: 212, VL SEQ ID NO: 217 (antibody, listed as Homo sapiens, V domains shown)
VH: EVQLLESGGGLVQPGGSLRLSCAASGFTFQYDYQVWVRQAPGKGLEWVSAISGSGGSTYYADSVKGRFTISRDNSKNTLYLQMNSLRAEDTAVYYCARLRADLGLYMDLWGRGTLVTVSS
VL: QSVLTQPPSVSAAPGQKVTISCSGSSSNIGNHYVSWYQQLPGTAPKLLIYDNSERTSGIPDRFSGSKSGTSATLGITGLQTGDEADYYCGTWDELTSNLVFGGGTKLTVL
modifications: C0021139
increase in average hydrodynamic radius (Rh) of ARG2-Fab complexes in comparison with ARG2-C0020187 Fab complexes (ARG2 [1]): 1.5 nm

EC50 (ARG2 [2]): < 0.8 nM
Maximum % Proliferation (ARG2 [2]): 82%
inhibition of the activity of human monomeric ARG2 (monomeric ARG2): inhibited
B2: C0020065: anti-ARG2 antibody, alternate lead isolation clone, VH SEQ ID NO: 2, VL SEQ ID NO: 7 (antibody, listed as Homo sapiens, V domains shown)
VH: GVNLRESGGGVVQPGRSLRLSCAASGFTFSSYAMHWVRQAPGKGLEWVAVISYDGSNKYYVDSVKGRFTISRDNSKNTLYLQMNSLRAEDTAVYYCARDSSQLWFDYWGRGTLVTVSS
VL: QSVVTQPPSVSGAPGQRVTISCTGSSSNIGTGYDVHWYQQLPGTAPKLLIYGNSNRPSGVPDRFSGSKSGTSASLAITGLQAEDEADYYCQSYDSSLSGSVVFGGGTQLTVL
modifications: C0020065
